B1: Gal4AD-Sds22 [S. cerevisiae] / Gal4(1-147)-Glc7 [S. cerevisiae] (parent complex)
chain 1: MDKNSVNKDSEEKDERHKIEVVDDTNPDFITADSELTQDLPDDVEVIDLVHLKIKSLEDLNLYRFKNLKQLCLRQNLIESISEVEVLPHDKIVDLDFYDNKIKHISSNVNKLTKLTSLDLSFNKIKHIKNLENLTDLENLYFVQNSISKIENLSTLKSLKNLELGGNKVHSIEPDSFEGLSNLEEIWLGKNSIPRLINLHPLKNLKILSIQSNKLKKIENLEELTNLEELYLSHNFITKIEGLEKNLKLTTLDVTSNKITSLENLNHLSNLTDIWASFNKIDQSFESLGENLSALSRLETIYLEGNPIQLENKTSYRRKLTMNLPPSLQKIDATYIRG
chain 2: MDSQPVDVDNIIDRLLEVRGSKPGQQVDLEENEIRYLCSKARSIFIKQPILLELEAPIKICGDIHGQYYDLLRLFEYGGFPPESNYLFLGDYVDRGKQSLETICLLLAYKIKYPENFFILRGNHECASINRIYGFYDECKRRYNIKLWKTFTDCFNCLPIAAIIDEKIFCMHGGLSPDLNSMEQIRRVMRPTDIPDVGLLCDLLWSDPDKDIVGWSENDRGVSFTFGPDVVNRFLQKQDMELICRAHQVVEDGYEFFSKRQLVTLFSAPNYCGEFDNAGAMMSVDESLLCSFQILKPAQKSLPRQAGGRKKK

Variants of: B1
Experiment: two-hybrid assay (β-galactosidase activity); three independent PJ69-4A transformants; parent: 23; read off a plot

How did the response turn out when chain 1 MDKNSVNKDSEEKDERHKIEVVDDTNPDFITADSELTQDLPDDVEVIDLVHLKIKSLEDLNLYRFKNLKQLCLRQNLIESISEVEVLPHDKIVDLDFYDNKIKHISSNVNKLTKLTSLDLSFNKIKHIKNLENLTDLENLYFVQNSISKIENLSTLKSLKNLELGGNKVHSIEPDSFEGLSNLEEIWLGKNSIPRLINLHPLKNLKILSIQSNKLKKIENLEELTNLEELYLSHNFITKIEGLEKNLKLTTLDVTSNKITSLENLNHLSNLTAIWASFNKIDQSFESLGENLSALSRLETIYLEGNPIQLENKTSYRRKLTMNLPPSLQKIDATYIRG [chain 1 D273A] was run?
Its response is ~19.

For chain 1 MDKNSVNKDSEEKDERHKIEVVDDTNPDFITADSELTQDLPDDVEVIDLVHLKIKSLEDLNLYRFKNLKQLCLRQNLIESISEVEVLPHDKIVDLDFYDNKIKHISSNVNKLTKLTSLDLSFNKIKHIKNLENLTDLENLYFVQNSISKIENLSTLKSLKNLELGGNKVHSIEPDSFEGLSNLEEIWLGKNSIPRLINLHPLKNLKILSIQSNKLKKIENLEELTNLEELYLSHNFITKIEGLEKNLKLTTLDVTSNKITSLENLNHLSNLTDIAASFNKIDQSFESLGENLSALSRLETIYLEGNPIQLENKTSYRRKLTMNLPPSLQKIDATYIRG [chain 1 W275A], which response is on record?
Its response is ~11.

Which response does the source give for chain 1 MDKNSVNKDSEEKDERHKIEVVDDTNPDFITADSELTQDLPDDVEVIDLVHLKIKSLEDLNLYRFKNLKQLCLRQNLIESISEVEVLPHDKIVDLDFYDNKIKHISSNVNKLTKLTSLALSFNKIKHIKNLENLTDLENLYFVQNSISKIENLSTLKSLKNLELGGNKVHSIEPDSFEGLSNLEEIWLGKNSIPRLINLHPLKNLKILSIQSNKLKKIENLEELTNLEELYLSHNFITKIEGLEKNLKLTTLDVTSNKITSLENLNHLSNLTDIWASFNKIDQSFESLGENLSALSRLETIYLEGNPIQLENKTSYRRKLTMNLPPSLQKIDATYIRG [chain 1 D119A] here?
The response was ~11.

For chain 1 MDKNSVNKDSEEKDERHKIEVVDDTNPDFITADSELTQDLPDDVEVIDLVHLKIKSLEDLNLYRFKNLKQLCLRQNLIGSISEVEVLPHDKIVDLDFYDNKIKHISSNVNKLTKLTSLDLSFNKIKHIKNLENLTDLENLYFVQNSISKIENLSTLKSQKNLELGGNKVHSIEPDSFEGLSNLEEIWLGKNSIPRLINLHPLKNLKILSIQSNKLKKIENLEELTNLEELYLSHNFITKIEGLEKNLKLTTLDVTSNKITSLENLNHLSNLTDIWASFNKIDQSFESLGENLSAISRLETIYLEGNPIQLENKTSYRRKLTMNLPPSLQKIDATYIRG [chain 1 E79G, chain 1 L159Q, chain 1 L295I], which response is on record?
The response was ~6.

With chain 1 MDKNSVNKDSEEKDERHKIEVVDDTNPDFITADSELTQDLPDDVEVIDLVHLKIKSLEDLNLYRLKNLKQLCLRQNLIESISEVEVLPHDKIVDLDFYDNKIKHISSNVNKLTKLTSLDLSFNKIKHIKNLENLTDLENLHFVQNSISKIENLSTLKSLKNLELGGNKVHSIEPDSFEGLSNLEEIWLGKNSIPRLINLHPLKNLKILSTQSNKLKKIENLEELTNLEELYLSHNFITKIEGLEKNLKLTTLDVTSNKITSLENLNHLSNLTDIWASFNKIDQSFESLGENLSALSRLETIYLEGNPIQLENKTSYRRKLTMNLPPSLQKIDATYIRG [chain 1 F65L, chain 1 Y141H, chain 1 I210T] as the variant, how does the response read?
Its response is ~13.

Source: PMC3718817 (2013)
